Test results as given in patent US20140080766.

Tested on: E6N2 (E6 Fn3-mouse IgG2a Fc-human PKR dsRBD fusion, homodimer) C121V,C135V (in dsRBD) (Homo sapiens)
Assay: flow
Conditions: KD,app; E6N2 on Protein A beads; DMEM+10% FBS, 37 C, 1 h; pH presumably 7.4; avidity from bivalent dsRBD

## AllStars Negative Control siRNA (Qiagen)
  Kd: 3.5 nM
